This is an account of results in publication PMC7723274.

No end group written: not given here. A value given as a limit tells only on which side of the number the result lay.

For assay [1], the target named is hexon HVR1 chimera virion (HAdV-5 with hexon HVR1 replaced by that of HAdV-64) (human adenovirus 5 (HAdV-5) | human adenovirus 64 (HAdV-64)) (UniProt P04133).
For assay [2], the target named is HAdV-64 virion (E3 deleted, replication-competent HAdV-64 virus containing a CMV-eGFP ORF, WT HAdV-64 capsid) (human adenovirus 64 (HAdV-64)).
Assay [3] has as its target HAdV-5 virion (E1/E3-deleted, replication-defective HAdV-5 vector with an eGFP cassette) (human adenovirus 5 (HAdV-5)) (UniProt P04133).
Assay [4] deals with C4 vertex chimera virion (HAdV-5 with penton base residues 288 to 571 from HAdV-64 and the DTET to GYAR mutation in fiber) (human adenovirus 5 (HAdV-5) | human adenovirus 64 (HAdV-64)) (UniProt P04133).
For assay [5], the target named is HAdV-5 virion (E1/E3-deleted, replication-defective HAdV-5 vector with an eGFP cassette) (human adenovirus 5 (HAdV-5)) (UniProt P04133). This is another data set of the same source.
The target of assay [6] is hexon HVR1 chimera virion (HAdV-5 with hexon HVR1 replaced by that of HAdV-64) (human adenovirus 5 (HAdV-5) | human adenovirus 64 (HAdV-64)) (UniProt P04133). The source holds these as a separate data set.
Assay [7] has as its target hexon HVR1/C4 vertex chimera virion (C4 chimera with hexon HVR1 replaced by that of HAdV-64) (human adenovirus 5 (HAdV-5) | human adenovirus 64 (HAdV-64)) (UniProt P04133).
For assay [8], the target named is C4 vertex chimera virion (HAdV-5 with penton base residues 288 to 571 from HAdV-64 and the DTET to GYAR mutation in fiber) (human adenovirus 5 (HAdV-5) | human adenovirus 64 (HAdV-64)) (UniProt P04133). Briefly: co-sedimentation; 2.5 μg purified virus with 20 μM HD5 in 150 mM NaCl, 20 mM Tris, 5% glycerol, 1 mM MgCl2, on ice 45 min; discontinuous Histodenz gradient, 4°C, virus band collected; SDS-PAGE, fluorescent stain; HD5 normalised to proteins V and VII and read against a standard curve.

In assay [9] the target is HAdV-5 virion (E1/E3-deleted, replication-defective HAdV-5 vector with an eGFP cassette) (human adenovirus 5 (HAdV-5)) (UniProt P04133). Described as above.
Assay [10] addresses HAdV-64 virion (E3 deleted, replication-competent HAdV-64 virus containing a CMV-eGFP ORF, WT HAdV-64 capsid) (human adenovirus 64 (HAdV-64)). The assay is described as above.
In assay [11] the target is hexon HVR1 chimera virion (HAdV-5 with hexon HVR1 replaced by that of HAdV-64) (human adenovirus 5 (HAdV-5) | human adenovirus 64 (HAdV-64)) (UniProt P04133). Described as above.

ATCYCRTGRCATRESLSGVCEISGRLYRLCCR (not fully specified; cysteine pairing not given here) [Human defensin 5] displayed an HD5 IC50 of infection on A549 cells, against HAdV-5 (fold over HAdV-5) in assay [1] of 5. The molecule further gave an infectivity on A549 cells of virus incubated with 5 μM or 10 μM HD5 (protocol 1) in assay [2] of 4 to 5 fold. In assay [3], this molecule yielded a binding of AF488-labeled virus to A549 cells after pre-incubation with 2.5, 5 and 10 μM HD5, fold change in GMF against no HD5 of 1.4 to 2.1 fold. The molecule further registered an HD5 concentration at which 50% of fiber stays capsid-associated after heating to 49.3°C (fully associated at 20 μM HD5) in [4] of 5 µM. Moreover, the HD5 concentration at which 50% of fiber stays capsid-associated after heating to 48°C (fully associated at 20 μM HD5) in [5] was determined as 5 µM. The HD5 concentration at which 50% of fiber stays capsid-associated after heating to 48°C, against HAdV-5 (fully associated at 20 μM HD5) (fold higher than HAdV-5) in assay [6] was more than 2. Also, the HD5 concentration at which 50% of fiber stays capsid-associated after heating to 49.3°C, against HAdV-5 (fully associated at 20 μM HD5) (fold lower than HAdV-5) in [7] turned out to be 2. The molecule further gave a fold more HD5 bound per virion than to HAdV-5 (fold more than HAdV-5) in [8] of 2.3. This molecule yielded a stoichiometry N (molecules of HD5 per virion) in assay [9] of 7090. Moreover, the fold less HD5 bound per virion than to HAdV-5 (fold less than HAdV-5) in assay [10] stood at 83; in assay [11], 5.
